Test results published in US20260356955 (published 2026).

T1: cynomolgus KLRB1 ECD (cynomolgus)
T1 chain: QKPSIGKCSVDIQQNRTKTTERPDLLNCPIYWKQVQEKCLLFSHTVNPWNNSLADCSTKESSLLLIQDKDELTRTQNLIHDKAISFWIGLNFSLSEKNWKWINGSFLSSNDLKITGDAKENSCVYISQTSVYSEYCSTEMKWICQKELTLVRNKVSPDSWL

T2: cynomolgus KLRB1 on CHO-K1 (cynomolgus)
T2 chain: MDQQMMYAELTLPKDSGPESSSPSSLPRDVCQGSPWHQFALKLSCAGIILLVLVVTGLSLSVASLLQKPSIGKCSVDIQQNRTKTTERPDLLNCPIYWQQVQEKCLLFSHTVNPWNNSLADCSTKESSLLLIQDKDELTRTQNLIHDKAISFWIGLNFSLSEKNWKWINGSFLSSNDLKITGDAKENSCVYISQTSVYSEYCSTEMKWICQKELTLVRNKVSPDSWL


Columns and labels:
human KLRB1 ECD [1] = target: human KLRB1 ECD (human); experiment: SPR
human KLRB1 ECD (human), sequence (chain, as listed by the source): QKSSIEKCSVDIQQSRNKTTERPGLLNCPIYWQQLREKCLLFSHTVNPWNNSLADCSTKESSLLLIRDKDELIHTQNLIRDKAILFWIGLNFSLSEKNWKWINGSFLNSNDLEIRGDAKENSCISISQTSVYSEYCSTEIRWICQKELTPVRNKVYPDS

cynomolgus KLRB1 ECD = target: T1, cynomolgus KLRB1 ECD; experiment: ELISA
human KLRB1 on CHO-K1 [2] = target: human KLRB1 on CHO-K1 (human); experiment: FACS
human KLRB1 on CHO-K1 (human), sequence (chain, as listed by the source): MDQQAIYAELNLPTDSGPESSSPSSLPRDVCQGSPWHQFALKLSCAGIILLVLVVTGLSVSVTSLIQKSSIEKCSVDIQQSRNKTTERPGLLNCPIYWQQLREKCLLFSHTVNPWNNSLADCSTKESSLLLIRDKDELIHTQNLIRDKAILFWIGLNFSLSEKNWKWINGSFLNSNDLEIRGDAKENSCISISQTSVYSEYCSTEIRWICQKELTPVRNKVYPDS

human KLRB1 ECD [3] = target: human KLRB1 ECD (human); experiment: ELISA
human KLRB1 on CHO-K1 [4] = target: human KLRB1 on CHO-K1 (human); experiment: competition, CLEC2D, FACS
[5] = target: T2, cynomolgus KLRB1 on CHO-K1; experiment: FACS

Binder	Kd (human KLRB1 ECD [1]) [nM]	EC50 (cynomolgus KLRB1 ECD) [nM]	EC50 (human KLRB1 on CHO-K1 [2]) [nM]	EC50 (human KLRB1 ECD [3]) [nM]	IC50 (human KLRB1 on CHO-K1 [4]) [nM]	EC50 [5] [nM]
Hu22F10G3-1.4 (antibody, V domains shown) VH: QVQLQESGPGLVKPSQTLSLTCTVSGYSLTSDFAWNWIRQHPGKGLEWIGDIRYSGSTDYNPSLKGRVTISVDTSKNQFSLKLSSVTAADTAVYYCARGGYYGYDEGYPMDYWGQGTLVTVSS VL: DIVMTQSPDSLAVSLGERATISCRASESVDVYGNSFMHWYQQKPGQPPKLLIYLAFNLKSGVPARFSGSGSGTDFTLTISSLQAEDVATYYCQQNNEDPFTFGQGTKLEIK	0.153					
Hu47A5H2-08 (antibody, V domains shown) VH: QVQLVQSGAEVKKPGASVKVSCKASGYSFTGYWMHWVRQAPGQGLEWMGMIHPSDSETRLNQKFKDRVTMTVDTSTSTVYMELSSLRSEDTAVYYCASEGLRRGSFAYWGQGTLVTVSS VL: EIVLTQSPATLSLSPGERATLSCRASESVDNYGMTFMSWYQQKPGQAPRLLIYAASNQGSGIPARFSGSGSGTDFTLTISSLEPEDFAVYYCQQSKEVPYTFGQGTKLEIK		0.0306	1.68	0.0174	2.42	2.55
Hu47A5H2-05 (antibody, V domains shown) VH: QVQLVQSGAEVKKPGASVKVSCKASGYSFTGYWMHWVRQAPGQGLEWMGMIHPSDSETRLNQKFKDRVTMTVDTSTSTVYMELSSLRSEDTAVYYCASEGLRRGSFAYWGQGTLVTVSS VL: DIVMTQSPDSLAVSLGERATINCRASESVDNYGMTFMSWYQQKPGQPPKLLIYAASNQGSGVPDRFSGSGSGTDFTLTISSLQAEDVAVYYCQQSKEVPYTFGQGTKLEIK		0.0824	1.49	0.0172	2.16	5.22
Hu47A5H2-06 (antibody, V domains shown) VH: QVQLVQSGAEVKKPGASVKVSCKASGYSFTGYWMHWVRQAPGQGLEWMGMIHPSDSETRLNQKFKDRVTMTVDTSTSTVYMELSSLRSEDTAVYYCASEGLRRGSFAYWGQGTLVTVSS VL: DIVLTQSPDSLAVSLGERATINCRASESVDNYGMTFMSWYQQKPGQPPKLLIYAASNQGSGVPDRFSGSGSGTDFTLTISSLQAEDVAVYYCQQSKEVPYTFGQGTKLEIK		0.0562	1.67	0.0204	2.66	6.62
Hu47A5H2-01 (antibody, V domains shown) VH: QVQLVQSGAEVKKPGASVKVSCKASGYSFTGYWMHWVRQAPGQGLEWMGMIHPSDSETRLNQKFKDRVTMTRDTSTSTVYMELSSLRSEDTAVYYCASEGLRRGSFAYWGQGTLVTVSS VL: DIVMTQSPDSLAVSLGERATINCRASESVDNYGMTFMSWYQQKPGQPPKLLIYAASNQGSGVPDRFSGSGSGTDFTLTISSLQAEDVAVYYCQQSKEVPYTFGQGTKLEIK		0.116	2.65	0.0195	1.59	7.76
Hu47A5H2-02 (antibody, V domains shown) VH: QVQLVQSGAEVKKPGASVKVSCKASGYSFTGYWMHWVRQAPGQGLEWMGMIHPSDSETRLNQKFKDRVTMTRDTSTSTVYMELSSLRSEDTAVYYCASEGLRRGSFAYWGQGTLVTVSS VL: DIVLTQSPDSLAVSLGERATINCRASESVDNYGMTFMSWYQQKPGQPPKLLIYAASNQGSGVPDRFSGSGSGTDFTLTISSLQAEDVAVYYCQQSKEVPYTFGQGTKLEIK		0.0372	2.08	0.0198	2.05	7.51
Hu47A5H2-15 (antibody, V domains shown) VH: QVQLVQSGAEVKKPGASVKVSCKGSGYSFTGYWMHWVRQAPGQGLEWMGMIHPSDSETRLNQKFKDKVTMTVDKSTSTVYMELSSLRSEDTAVYYCASEGLRRGSFAYWGQGTLVTVSS VL: DIVLTQSPDSLAVSLGERATINCRASESVDNYGMTFMSWFQQKPGQPPKLLIYAASNQGSGVPDRFSGSGSGTDFTLTISSLQAEDVAVYYCQQSKEVPYTFGQGTKLEIK		0.00973	1.98	0.0241	2.47	~1.74
Hu47A5H2-12 (antibody, V domains shown) VH: QVQLVQSGAEVKKPGASVKVSCKASGYSFTGYWMHWVRQAPGQGLEWMGMIHPSDSETRLNQKFKDRVTMTVDKSTSTVYMELSSLRSEDTAVYYCASEGLRRGSFAYWGQGTLVTVSS VL: EIVLTQSPATLSLSPGERATLSCRASESVDNYGMTFMSWYQQKPGQAPRLLIYAASNQGSGIPARFSGSGSGTDFTLTISSLEPEDFAVYYCQQSKEVPYTFGQGTKLEIK		0.02	5.16	0.0263	2.17	~1.69

Second part, the binder after the results:

Kd (human KLRB1 ECD [1]) [nM]	EC50 (cynomolgus KLRB1 ECD) [nM]	EC50 (human KLRB1 on CHO-K1 [2]) [nM]	EC50 (human KLRB1 ECD [3]) [nM]	IC50 (human KLRB1 on CHO-K1 [4]) [nM]	EC50 [5] [nM]	Binder
0.0972						Hu22F10G3-4.3 (antibody, V domains shown) VH: QVQLQESGPGLVKPSQTLSLTCTVSGYSLTSDFAWNWIRQFPGKGLEWMGDIRYSGSTDYNPSLKGRSTISRDTSKNQFFLKLSSVTAADTAVYYCARGGYYGYDEGYPMDYWGQGTLVTVSS VL: DIVMTQSPDSLAVSLGERATISCRASESVDVYGNSFMHWYQQKPGQPPKLLIYLAFNLKSGVPDRFSGSGSGTDFTLTISSLQAEDVAVYYCQQNNEDPFTFGQGTKLEIK
	0.0414	2.12	0.0309	2.54	~1.82	Hu47A5H2-14 (antibody, V domains shown) VH: QVQLVQSGAEVKKPGASVKVSCKGSGYSFTGYWMHWVRQAPGQGLEWMGMIHPSDSETRLNQKFKDKVTMTVDKSTSTVYMELSSLRSEDTAVYYCASEGLRRGSFAYWGQGTLVTVSS VL: DIVLTQSPDSLAVSLGERATINCRASESVDNYGMTFMSWYQQKPGQPPKLLIYAASNQGSGVPDRFSGSGSGTDFTLTISSLQAEDVAVYYCQQSKEVPYTFGQGTKLEIK
	0.0441	1.67	0.0212	2.53	4.71	Hu47A5H2-04 (antibody, V domains shown) VH: QVQLVQSGAEVKKPGASVKVSCKASGYSFTGYWMHWVRQAPGQGLEWMGMIHPSDSETRLNQKFKDRVTMTRDTSTSTVYMELSSLRSEDTAVYYCASEGLRRGSFAYWGQGTLVTVSS VL: EIVLTQSPATLSLSPGERATLSCRASESVDNYGMTFMSWYQQKPGQAPRLLIYAASNQGSGIPARFSGSGSGTDFTLTISSLEPEDFAVYYCQQSKEVPYTFGQGTKLEIK
	0.0283	1.96	0.0273	2.22	~1.86	Hu47A5H2-09 (antibody, V domains shown) VH: QVQLVQSGAEVKKPGASVKVSCKASGYSFTGYWMHWVRQAPGQGLEWMGMIHPSDSETRLNQKFKDRVTMTVDKSTSTVYMELSSLRSEDTAVYYCASEGLRRGSFAYWGQGTLVTVSS VL: DIVMTQSPDSLAVSLGERATINCRASESVDNYGMTFMSWYQQKPGQPPKLLIYAASNQGSGVPDRFSGSGSGTDFTLTISSLQAEDVAVYYCQQSKEVPYTFGQGTKLEIK
	0.0429	2.11	0.0287	2.41	~1.8	Hu47A5H2-16 (antibody, V domains shown) VH: QVQLVQSGAEVKKPGASVKVSCKGSGYSFTGYWMHWVRQAPGQGLEWMGMIHPSDSETRLNQKFKDKVTMTVDKSTSTVYMELSSLRSEDTAVYYCASEGLRRGSFAYWGQGTLVTVSS VL: EIVLTQSPATLSLSPGERATLSCRASESVDNYGMTFMSWYQQKPGQAPRLLIYAASNQGSGIPARFSGSGSGTDFTLTISSLEPEDFAVYYCQQSKEVPYTFGQGTKLEIK
	0.0984	1.79	0.0266	2.31	~1.81	Hu47A5H2-13 (antibody, V domains shown) VH: QVQLVQSGAEVKKPGASVKVSCKGSGYSFTGYWMHWVRQAPGQGLEWMGMIHPSDSETRLNQKFKDKVTMTVDKSTSTVYMELSSLRSEDTAVYYCASEGLRRGSFAYWGQGTLVTVSS VL: DIVMTQSPDSLAVSLGERATINCRASESVDNYGMTFMSWYQQKPGQPPKLLIYAASNQGSGVPDRFSGSGSGTDFTLTISSLQAEDVAVYYCQQSKEVPYTFGQGTKLEIK
	0.0137	1.73	0.0205	2.31	11.6	Hu47A5H2-03 (antibody, V domains shown) VH: QVQLVQSGAEVKKPGASVKVSCKASGYSFTGYWMHWVRQAPGQGLEWMGMIHPSDSETRLNQKFKDRVTMTRDTSTSTVYMELSSLRSEDTAVYYCASEGLRRGSFAYWGQGTLVTVSS VL: DIVLTQSPDSLAVSLGERATINCRASESVDNYGMTFMSWFQQKPGQPPKLLIYAASNQGSGVPDRFSGSGSGTDFTLTISSLQAEDVAVYYCQQSKEVPYTFGQGTKLEIK
	0.0174	0.88	0.0272	1.96	~1.65	Hu47A5H2-10 (antibody, V domains shown) VH: QVQLVQSGAEVKKPGASVKVSCKASGYSFTGYWMHWVRQAPGQGLEWMGMIHPSDSETRLNQKFKDRVTMTVDKSTSTVYMELSSLRSEDTAVYYCASEGLRRGSFAYWGQGTLVTVSS VL: DIVLTQSPDSLAVSLGERATINCRASESVDNYGMTFMSWYQQKPGQPPKLLIYAASNQGSGVPDRFSGSGSGTDFTLTISSLQAEDVAVYYCQQSKEVPYTFGQGTKLEIK
